Tested on: Escherichia coli TOP10
Assay: shrunken log2 fold change of peptide-encoding DNA abundance (4.5 h post-induction vs induction); higher = less antimicrobial activity (less host growth inhibition)
Conditions: time post-induction: 4.5 h; library: site-saturation at positions 5, 18, 19, 20
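Further: peptides expressed intracellularly from a pBAD plasmid library in pooled LB shake-flask culture, induced with 0.3% L-arabinose, DNA abundance read by NGS, three biological replicates, DESeq2 with apeglm shrinkage.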

Sequence | shrunken log2 fold change
RRIRHRPPRLPRPRPRPRCNPRP | -0.331
RRIRHRPPRLPRPRPRPRDLPRP | -0.0495
RRIRHRPPRLPRPRPRPRECPRP | 0.0559
RRIRHRPPRLPRPRPRPREIPRP | 0.0735
RRIRHRPPRLPRPRPRPRENPRP | 0.0589
RRIRHRPPRLPRPRPRPRFDPRP | -0.163
RRIRHRPPRLPRPRPRPRGNPRP | 0.174
RRIRHRPPRLPRPRPRPRGWPRP | 0.629
RRIRHRPPRLPRPRPRPRHTPRP | -0.0794
RRIRHRPPRLPRPRPRPRIEPRP | 0.15
RRIRHRPPRLPRPRPRPRIVPRP | 0.00411
RRIRHRPPRLPRPRPRPRKCPRP | -0.116
RRIRHRPPRLPRPRPRPRKQPRP | 0.11
RRIRHRPPRLPRPRPRPRMPPRP | 0.133
RRIRHRPPRLPRPRPRPRPDPRP | 0.179
RRIRHRPPRLPRPRPRPRQKPRP | -0.01
RRIRHRPPRLPRPRPRPRRCPRP | 0.166
RRIRHRPPRLPRPRPRPRRSPRP | 0.0555
RRIRHRPPRLPRPRPRPRSAPRP | 0.356
RRIRHRPPRLPRPRPRPRSNPRP | -0.253
RRIRHRPPRLPRPRPRPRSPPRP | 0.243
RRIRHRPPRLPRPRPRPRWWPRP | 0.00789

Sequence | shrunken log2 fold change
RRIRHRPPRLPRPRPRPRYNPRP | -0.591
RRIRHRPPRLPRPRPRPRYYPRP | -0.332
RRIRHRPPRLPRPRPRPSAHPRP | -0.139
RRIRHRPPRLPRPRPRPSAQPRP | 0.127
RRIRHRPPRLPRPRPRPSASPRP | -0.0379
RRIRHRPPRLPRPRPRPSCEPRP | -0.569
RRIRHRPPRLPRPRPRPSDHPRP | -0.548
RRIRHRPPRLPRPRPRPSDNPRP | 0.129
RRIRHRPPRLPRPRPRPSDSPRP | -0.0454
RRIRHRPPRLPRPRPRPSDWPRP | -0.327
RRIRHRPPRLPRPRPRPSEWPRP | -0.0167
RRIRHRPPRLPRPRPRPSFGPRP | -0.561
RRIRHRPPRLPRPRPRPSHFPRP | -0.0233
RRIRHRPPRLPRPRPRPSIAPRP | -0.0614
RRIRHRPPRLPRPRPRPSIIPRP | -0.237
RRIRHRPPRLPRPRPRPSIRPRP | -0.345
RRIRHRPPRLPRPRPRPSKIPRP | -0.517
RRIRHRPPRLPRPRPRPSLHPRP | -0.652
RRIRHRPPRLPRPRPRPSMHPRP | -0.705
RRIRHRPPRLPRPRPRPSMTPRP | 0.0628
RRIRHRPPRLPRPRPRPSNKPRP | -0.802
RRIRHRPPRLPRPRPRPSPQPRP | -0.358

Sequence | shrunken log2 fold change
RRIRHRPPRLPRPRPRPSQEPRP | -0.27
RRIRHRPPRLPRPRPRPSQVPRP | 0.176
RRIRHRPPRLPRPRPRPSRAPRP | 0.373
RRIRHRPPRLPRPRPRPSRLPRP | 0.39
RRIRHRPPRLPRPRPRPSRMPRP | -0.518
RRIRHRPPRLPRPRPRPSRWPRP | 0.102
RRIRHRPPRLPRPRPRPSWTPRP | -0.356
RRIRHRPPRLPRPRPRPSWVPRP | -0.0882
RRIRHRPPRLPRPRPRPTASPRP | -0.131
RRIRHRPPRLPRPRPRPTELPRP | 0.0215
RRIRHRPPRLPRPRPRPTEMPRP | 0.181
RRIRHRPPRLPRPRPRPTFAPRP | 3.26
RRIRHRPPRLPRPRPRPTFWPRP | 0.179
RRIRHRPPRLPRPRPRPTGEPRP | -0.0103
RRIRHRPPRLPRPRPRPTGRPRP | -0.089
RRIRHRPPRLPRPRPRPTHAPRP | 0.233
RRIRHRPPRLPRPRPRPTKDPRP | -0.154
RRIRHRPPRLPRPRPRPTMQPRP | -0.0838
RRIRHRPPRLPRPRPRPTMVPRP | -0.224
RRIRHRPPRLPRPRPRPTMYPRP | 0.000437
RRIRHRPPRLPRPRPRPTNKPRP | -0.557
RRIRHRPPRLPRPRPRPTNTPRP | -0.384

Sequence | shrunken log2 fold change
RRIRHRPPRLPRPRPRPTPPPRP | 0.391
RRIRHRPPRLPRPRPRPTRAPRP | 0.348
RRIRHRPPRLPRPRPRPTSEPRP | 0.0261
RRIRHRPPRLPRPRPRPTSVPRP | -0.0283
RRIRHRPPRLPRPRPRPTWHPRP | -0.073
RRIRHRPPRLPRPRPRPTYCPRP | -0.129
RRIRHRPPRLPRPRPRPTYIPRP | -0.573
RRIRHRPPRLPRPRPRPTYQPRP | 0.0668
RRIRHRPPRLPRPRPRPVCCPRP | -0.0885
RRIRHRPPRLPRPRPRPVCGPRP | 0.137
RRIRHRPPRLPRPRPRPVCVPRP | -0.216
RRIRHRPPRLPRPRPRPVDGPRP | -0.00557
RRIRHRPPRLPRPRPRPVDMPRP | -0.201
RRIRHRPPRLPRPRPRPVFFPRP | -0.0644
RRIRHRPPRLPRPRPRPVFMPRP | -0.311
RRIRHRPPRLPRPRPRPVISPRP | -0.199
RRIRHRPPRLPRPRPRPVKNPRP | 0.0467
RRIRHRPPRLPRPRPRPVLHPRP | -0.501
RRIRHRPPRLPRPRPRPVLMPRP | -0.381
RRIRHRPPRLPRPRPRPVPKPRP | 0.0819
RRIRHRPPRLPRPRPRPVQLPRP | -0.0712
RRIRHRPPRLPRPRPRPVQVPRP | -0.162

Sequence | shrunken log2 fold change
RRIRHRPPRLPRPRPRPVRRPRP | 0.241
RRIRHRPPRLPRPRPRPVSIPRP | -0.00904
RRIRHRPPRLPRPRPRPVWWPRP | 0.174
RRIRHRPPRLPRPRPRPVYWPRP | -0.262
RRIRHRPPRLPRPRPRPWAPPRP | -0.251
RRIRHRPPRLPRPRPRPWCNPRP | -0.417
RRIRHRPPRLPRPRPRPWDVPRP | -0.0319
RRIRHRPPRLPRPRPRPWFLPRP | -0.315
RRIRHRPPRLPRPRPRPWGGPRP | 0.39
RRIRHRPPRLPRPRPRPWGVPRP | -0.141
RRIRHRPPRLPRPRPRPWHPPRP | -0.801
RRIRHRPPRLPRPRPRPWHTPRP | -0.566
RRIRHRPPRLPRPRPRPWMCPRP | -1.49
RRIRHRPPRLPRPRPRPWMIPRP | -0.00164
RRIRHRPPRLPRPRPRPWMSPRP | -0.0135
RRIRHRPPRLPRPRPRPWMWPRP | -0.0064
RRIRHRPPRLPRPRPRPWNKPRP | -0.111
RRIRHRPPRLPRPRPRPWPFPRP | -0.285
RRIRHRPPRLPRPRPRPWQNPRP | -0.169
RRIRHRPPRLPRPRPRPWREPRP | -0.0297
RRIRHRPPRLPRPRPRPWRQPRP | 0.0449

From the supplement of paper PMC9112550, “Optimization of the antimicrobial peptide Bac7 by deep mutational scanning” (BMC Biology, 2022)
